Consider 33 molecules from patent US20260115250A1 (published 2026).

B1: T-115 (peptide)
peptide: DHINKVQRKVTHEIERLFLGQSTEELRVRLASHLRKLRKRLLRDADDLQKRLAVYQA
B2: T-044 (peptide)
peptide: LASHLRKLRKRLLRDADDLQKRLAVYQA
B3: T-069 (peptide)
peptide: VRGRLVQYRGEVQAMLGQSTEELRVRLASHLRKLRKRLLRDADDLQKRLAVYQA
B4: T-068 (peptide)
peptide: MEDVRGRLVQYRGEVQAMLGQSTEELRVRLASHLRKLRKRLLRDADDLQKRLAVYQA
B5: T-046 (peptide)
peptide: LASHLRKLRKRLLRDADDLQKRLAVYQAGAREGAER
B6: T-047 (peptide)
peptide: B5 peptide with S3R, L13A
B7: T-074 (peptide)
peptide: EELRVRLASHLRKLRKRLLR
B8: T-112 (peptide)
peptide: YKDFGERVERALGRQLEMLGQSTEELRVRLASHLRKLRKRLLRDADDLQKRLAVYQA
B9: T-113 (peptide)
peptide: B8 peptide with Y1W, G13R, R14E, L16F, M18D
B10: T-114 (peptide)
peptide: B8 peptide with Y1L, E9A, G13R, R14E, L16F, M18D
B11: T-120 (peptide)
peptide: DVKRLLKELTEAMAELARKAEDIRGNLDQYFRKVFAMLGQSTEELRVRLASHLRKLRKRLLRDADDLQKRLAVYQA
B12: T-118 (peptide)
peptide: LVARLLKELTAAMARLGRDAEDIRGNLFQYFDEVWAMLGQSTEELRVRLASHLRKLRKRLLRDADDLQKRLAVYQA
B13: T-049 (peptide)
peptide: LARHLRKLRKRLARDGDKLQDRLAEYQARAKEAFDR
B14: T-048 (peptide)
peptide: B13 peptide with R3S, A13L
B15: T-066 (peptide)
peptide: LARHLRKLRKRLARSLVSQYFQTVTDYGKDLM
B16: T-065 (peptide)
peptide: B15 peptide with R3S, A13L
B17: T-110 (peptide)
peptide: HLRKLRKRLLRSLVSQYRQTVTDYGKDL
B18: T-117 (peptide)
peptide: RSGADALESALKELKRFIREWTLGQSTEELRVRLASHLRKLRKRLLRDADDLQKRLAVYQA
B19: T-072 (peptide)
peptide: LASHLRKLRKRLLR
B20: T-109 (peptide)
peptide: HLRKLRKRLLRSLVSQYFQTVTDYGKDL
B21: T-116 (peptide)
peptide: DAWERFRALFKELADYFRLGQSTEELRVRLASHLRKLRKRLLRDADDLQKRLAVYQA
B22: T-111 (peptide)
peptide: HLRKLVKRLLRSLVSQYRQTVTDYGEDL
B23: T-052 (peptide)
peptide: HLRKLRKRLLRDGDKLQKRLAEYQARAKEAFDR
B24: T-059 (peptide)
peptide: B23 peptide with R6V, L10F, K18D
B25: T-062 (peptide)
peptide: B23 peptide with Q17Y, K18D, Q24Y
B26: T-041 (peptide)
peptide: B23 peptide with K4R, K7R, K18D
B27: T-055 (peptide)
peptide: B23 peptide with K18D, K28R
B28: T-040 (peptide)
peptide: B23 peptide with K18D
B29: T-064 (peptide)
peptide: B23 peptide with G13A, K15D
B30: T-101 (peptide)
peptide: RSGADALESALKELKRFIREWT
B31: T-087 (peptide)
peptide: DAWERFRALFKELADYFR
B32: LDLR (receptor)
chain: not shown
B33: T-070 (peptide)
peptide: LVQYRGEVQAMLGQSTEELRVRLASHLRKLRKRLLRDADDLQKRLAVYQA

Numbering of substitutions follows the chain as printed.

The target of the first test is T1, Low Density Lipoprotein Receptor (LDLR), recombinant (UniProt P01130 22-788). The experiment in a line: SPR; HBS + 0.05% P20. (In general: Surface plasmon resonance follows binding to a sensor surface in real time, without labels.)
As to B1, the Kd came to 2.81 µM.

For B2, the dissociation constant Kd turned out to be 7.97 µM.

With B3, the Kd stood at 2.39 µM.

In the case of B4, the dissociation constant Kd was found to be 1.98 µM.

Turning to B5, the Kd was determined as 3.56 µM.

For the molecule B6, the dissociation constant (Kd) worked out at 3.26 µM.

Take B7: the dissociation constant (Kd) worked out at 2.43 µM.

On to B8, for which the Kd came to 0.72 µM.

Regarding B9, the Kd was 1.82 µM.

Turning to B10, the dissociation constant Kd was determined as 1.27 µM.

B11: the equilibrium dissociation constant (Kd) came out at 11.8 µM.

With B12, the equilibrium dissociation constant (Kd) stood at 2.72 µM.

B13: the Kd was determined as 3.26 µM.

As for B14, the dissociation constant Kd was 5.24 µM.

B15: the Kd was found to be 2.42 µM.

As for B16, the dissociation constant (Kd) is 0.75 µM.

In the case of B17, the dissociation constant (Kd) is 1.15 µM.

As for B18, the dissociation constant Kd turned out to be 4.49 µM.

For B19, the equilibrium dissociation constant (Kd) came out at 4.85 µM.

With B20, the Kd amounted to 1.2 µM.

Regarding B21, the Kd came out at 1.21 µM.

B22: the Kd was found to be 1.06 µM.

B23: the Kd was found to be 1.75 µM.

On to B24, for which the dissociation constant Kd worked out at 7.27 µM.

On to B25, for which the Kd turned out to be 2.23 µM.

For the molecule B26, the Kd was 7.49 µM.

Turning to B27, the equilibrium dissociation constant (Kd) was found to be 5.09 µM.

As to B28, the dissociation constant (Kd) stood at 5.54 µM.

Turning to B29, the Kd was determined as 6.81 µM.

The target of a further test is T1, Low Density Lipoprotein Receptor …. The experiment in a line: SPR; HBS + 0.005% P20, peptide.
As for B1, the Kd was found to be 0.42 µM.

Regarding B30, the dissociation constant Kd turned out to be 11.7 µM.

As to B7, the Kd is 2.37 µM.

For the molecule B31, the Kd stood at 2.27 µM.

For B8, the dissociation constant Kd worked out at 1.14 µM.

Take B9: the Kd was determined as 1.44 µM.

As for B10, the Kd worked out at 2.7 µM.

B11: the Kd was 0.8 µM.

Consider B12, for which the equilibrium dissociation constant (Kd) came out at 0.32 µM.

As for B17, the Kd is 2.97 µM.

With B18, the equilibrium dissociation constant (Kd) is 0.4 µM.

On to B19, for which the Kd is 8.27 µM.

For the molecule B20, the dissociation constant (Kd) was 3.15 µM.

For B21, the Kd was 4.53 µM.

As to B22, the dissociation constant (Kd) is 2.98 µM.

The target in a further test is T-077. In words: SPR; HBS + 0.005% P20, DMPC complex.
In the case of B32, the Kd stood at 189 µM.

The target in the next test is T-050. In words: SPR; HBS + 0.05% P20.
Turning to B32, the Kd came out at 528 µM.

A further test deals with T-053. In words: SPR; HBS + 0.05% P20.
In the case of B32, the Kd came out at 122 µM.

For a further test, the target named is T-060. The experiment in a line: SPR; HBS + 0.05% P20.
With B32, the equilibrium dissociation constant (Kd) came to 150 µM.

The next test deals with T1, Low Density Lipoprotein Receptor …. In words: SPR; HBS + 0.005% P20, peptide. This is another data set of the same source.
Take B3: the dissociation constant (Kd) was determined as 1.12 µM.

Take B4: the Kd is 1.48 µM.

As to B5, the dissociation constant (Kd) worked out at 6.72 µM.

For the molecule B15, the equilibrium dissociation constant (Kd) is 2.06 µM.

For B16, the Kd worked out at 1.07 µM.

In the case of B33, the dissociation constant (Kd) is 1.38 µM.

Regarding B23, the Kd worked out at 1.18 µM.

For B24, the Kd is 7.72 µM.

Regarding B25, the Kd came to 9.36 µM.

B26: the dissociation constant (Kd) is 701 µM.

In the case of B28, the dissociation constant Kd was determined as 882 µM.

The next test has the same target. The experiment in a line: SPR; HBS + 0.005% P20, DMPC complex.
As for B1, the dissociation constant Kd was determined as 0.21 µM.

Turning to B7, the dissociation constant Kd worked out at 77 µM.

Consider B8, for which the Kd stood at 0.17 µM.

For the molecule B9, the Kd came out at 0.29 µM.

As for B10, the Kd amounted to 0.17 µM.

For B12, the Kd was determined as 94.3 µM.

Turning to B17, the dissociation constant (Kd) came to 1.2 µM.

With B18, the Kd turned out to be 0.01 µM.

With B20, the dissociation constant (Kd) amounted to 1.05 µM.

For B21, the dissociation constant (Kd) is 0.28 µM.

With B22, the equilibrium dissociation constant (Kd) amounted to 0.46 µM.

The next test deals with T-071. The experiment in a line: SPR; HBS + 0.005% P20, DMPC complex.
As to B32, the Kd was found to be 348 µM.

A further test concerns the target T-119. In words: SPR; HBS + 0.005% P20, peptide.
Consider B32, for which the Kd turned out to be 2.31 µM.

In another test the target is T1, Low Density Lipoprotein Receptor …. The experiment in a line: SPR; HBS + 0.005% P20, DMPC complex. This is another data set of the same source.
B2: the Kd is 1160 µM.

As for B3, the Kd came to 0.56 µM.

B4: the Kd turned out to be 0.66 µM.

On to B5, for which the dissociation constant (Kd) came to 56.3 µM.

For B14, the dissociation constant (Kd) was 666 µM.

With B15, the Kd was 0.11 µM.

On to B16, for which the equilibrium dissociation constant (Kd) was 0.18 µM.

As for B33, the Kd was 0.68 µM.

As to B23, the equilibrium dissociation constant (Kd) is 202 µM.

Turning to B25, the Kd was determined as 52.9 µM.

One may read the Kd as the free concentration of one partner at which half of the binding sites on the other are occupied at equilibrium, for simple one-to-one binding.
